The test concerns the target RhoGDIα S34D (phosphomimetic), bacterially expressed, hexahistidine-tagged (human) (UniProt P52565). Briefly: pull-down.
Chain of UniProt P52565 (P52565 whole entry S34D): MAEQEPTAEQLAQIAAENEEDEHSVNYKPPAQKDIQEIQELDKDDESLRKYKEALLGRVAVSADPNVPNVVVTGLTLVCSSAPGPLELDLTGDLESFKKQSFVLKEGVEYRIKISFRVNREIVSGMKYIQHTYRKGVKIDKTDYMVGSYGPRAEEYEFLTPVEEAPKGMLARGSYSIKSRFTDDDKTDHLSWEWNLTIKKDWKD

For “RhoA, endogenous in rat embryo fibroblasts (from UniProt P61589 1-193) (natural protein)”, the reduction of binding against wild-type RhoGDIα is 75%.
